In doi:10.1101/2020.06.15.153577:

Legend:
[1] = molecular target: Drosophila Shaker channel (ShakerIR) (Drosophila) (UniProt P08510)
ShakerKD (Drosophila) = ShakerKD (Drosophila) (UniProt P08510)

Substance	EC50 of block of K+ currents, two-electrode voltage clamp on Xenopus oocytes [1] [nM]	EC50 of block of K+ currents, two-electrode voltage clamp on Xenopus oocytes (ShakerKD (Drosophila)) [nM]
Conkunitzin-C1 (peptide)	2200	108
Conkunitzin-C3 (peptide)	166	190
